Source: US20190367620A1 (Merck KGaA, published 2019)
Residue numbers refer to the chain shown, from its start.

Key:
Test in all cases: SPR; free energy change relative to wild-type D2
[1] = target: T1, FGFR1 D2 point mutant K86A (human, UniProt P11362 22-254)
T1 chain: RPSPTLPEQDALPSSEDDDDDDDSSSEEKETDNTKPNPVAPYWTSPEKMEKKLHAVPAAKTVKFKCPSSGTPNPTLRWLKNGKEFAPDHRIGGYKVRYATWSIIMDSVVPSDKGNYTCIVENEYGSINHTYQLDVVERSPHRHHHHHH
Experimental: (§1) Binding affinities of anti-FGFR1 antibodies to FGFR1 were measured by Surface Plasmon Resonance (SPR) using a GE Healthcare BIAcore 4000 instrument as follows. Goat anti-human Fc antibody (Jackson ImmunoResearch Laboratories #109-005-098) was first immobilized on BIAcore carboxymethylated dextran CM5 chip using direct coupling to free amino groups following the procedure described by the manufacturer. Antibodies were then captured on the CM5 biosensor chip to achieve approximately 200 response units (RU). Binding measurements were performed using the running HBS-EP+ buffer. A 2-fold dilution series of His-tagged FGFR1 proteins were injected at a flow rate of 30 μl/min at 25° C. Association rates (kₒₙ, per mol/s) and dissociation rates (koff, per s) were calculated using a simple 1:1 Langmuir binding model (Biacore 4000 Evaluation Software). The equilibrium dissociation constant (KD, mol) was calculated as the ratio of koff/kₒₙ.
(§2) To obtain a finer, residue-level mapping of the epitope and to complement the HD exchange data, molecular modelling and manual inspection of the crystal structure of FGFR1 [(Beenken et al. 2012); PDB record 3OJV] was used to select solvent exposed residues within and around the epitope identified by HD exchange. The selected residues were mutated either to alanine (large to small) or to glycine if the selected residue was alanine. In total 35 point mutants were designed, expressed and purified in HEK cells, and tested for binding to mAb #A08 using surface plasmon resonance as described in Example 1.8. The affinity of the antibody for wild-type and each mutant was determined and used to calculate the contribution of each epitope residue to the binding energy.
(§3) Variant were compared to wild-type D2. The change in the Gibbs free energy of binding of mutant relative to the wild-type D2 construct (ΔΔGₘᵤₜ) was derived from the ratio of the wild-type and mutant KD.

[2] = target: T2, FGFR1 D2 point mutant S45A (human, UniProt P11362 22-254)
T2 chain: T1 chain with S45A, A86K
Experimental: as §1, §2, §3

[3] = target: T3, FGFR1 D2 point mutant G92A (human, UniProt P11362 22-254)
T3 chain: T1 chain with A86K, G92A
Experimental: as §1, §2, §3

[4] = target: T4, FGFR1 D2 point mutant S102A (human, UniProt P11362 22-254)
T4 chain: T1 chain with A86K, S102A
Experimental: as §1, §2, §3

[5] = target: T5, FGFR1 D2 point mutant H89A (human, UniProt P11362 22-254)
T5 chain: T1 chain with A86K, H89A
Experimental: as §1, §2, §3

[6] = target: T6, FGFR1 D2 point mutant R97A (human, UniProt P11362 22-254)
T6 chain: T1 chain with A86K, R97A
Experimental: as §1, §2, §3

[7] = target: T7, FGFR1 D2 point mutant V56A (human, UniProt P11362 22-254)
T7 chain: T1 chain with V56A, A86K
Experimental: as §1, §2, §3

[8] = target: T8, FGFR1 D2 point mutant A99G (human, UniProt P11362 22-254)
T8 chain: T1 chain with A86K, A99G
Experimental: as §1, §2, §3

[9] = target: T9, FGFR1 D2 point mutant A59G (human, UniProt P11362 22-254)
T9 chain: T1 chain with A59G, A86K
Experimental: as §1, §2, §3

[10] = target: T10, FGFR1 D2 point mutant D88A (human, UniProt P11362 22-254)
T10 chain: T1 chain with A86K, D88A
Experimental: as §1, §2, §3

B1: mAb #A08 (antibody, V domains shown)
VH: EVQLQESGPGLVKPSGTLSLTCAVSGGSISSNNWWSWVRQPPGKGLEWIGEIYHSGSTSYNPSLKSRVTISVDKSKNQFSLKLNSVTAADTAVYYCARGTDWFDPWGQGTLVTVSS
VL: QAVLTQPPSVSVAPGQTARITCGGNNIGSESVHWYQQKPGQAPVLVVYDDSDRPSGIPERFSGSNSGNTATLTISRVEAGDEADYYCQVWDSTSDHRVFGGGTKLTVL
notes: Only variable domains are tied to the name mAb #A08 (hit); also called #A08 hit; mAb #08
Q: For B1, which ΔΔGmut [1] is on record?
A: Its ΔΔGmut is -0.06 kcal/mol.

Q: And the ΔΔGmut [2]?
A: The ΔΔGmut was 0.05 kcal/mol.

Q: And the ΔΔGmut [3]?
A: Its ΔΔGmut is 0.21 kcal/mol.

Q: And the ΔΔGmut [4]?
A: Its ΔΔGmut is -0.13 kcal/mol.

Q: What about the ΔΔGmut [5] of the same binder?
A: Its ΔΔGmut is -0.02 kcal/mol.

Q: What about the ΔΔGmut [6] of the same binder?
A: The ΔΔGmut was 1.83 kcal/mol.

Q: And the ΔΔGmut [7]?
A: Its ΔΔGmut is 0.2 kcal/mol.

Q: What about the ΔΔGmut [8] of the same binder?
A: The ΔΔGmut was -0.05 kcal/mol.

Q: And the ΔΔGmut [9]?
A: Its ΔΔGmut is 1.78 kcal/mol.

Q: What about the ΔΔGmut [10] of the same binder?
A: Its ΔΔGmut is -0.1 kcal/mol.
